Laboratory results as given in PMC2583301.

How the values were obtained:
[1] = molecular target: yNap1 C200A/C249A/C272A labelled with Alexa dye at Cys-414 (yNap1m*) (yeast) (UniProt P25293); test: other fluorescence titration
[2] = molecular target: H2A refolded in the absence of H2B (Xenopus laevis) (UniProt P06897); test: AUC
[3] = molecular target: H2A/H2B(T112C) dimer, H2B labelled with Alexa dye (Xenopus laevis) (UniProt P06897); test: other fluorescence titration

Chain of yeast nucleosome assembly protein 1 (yNap1), wild type (P25293 whole entry): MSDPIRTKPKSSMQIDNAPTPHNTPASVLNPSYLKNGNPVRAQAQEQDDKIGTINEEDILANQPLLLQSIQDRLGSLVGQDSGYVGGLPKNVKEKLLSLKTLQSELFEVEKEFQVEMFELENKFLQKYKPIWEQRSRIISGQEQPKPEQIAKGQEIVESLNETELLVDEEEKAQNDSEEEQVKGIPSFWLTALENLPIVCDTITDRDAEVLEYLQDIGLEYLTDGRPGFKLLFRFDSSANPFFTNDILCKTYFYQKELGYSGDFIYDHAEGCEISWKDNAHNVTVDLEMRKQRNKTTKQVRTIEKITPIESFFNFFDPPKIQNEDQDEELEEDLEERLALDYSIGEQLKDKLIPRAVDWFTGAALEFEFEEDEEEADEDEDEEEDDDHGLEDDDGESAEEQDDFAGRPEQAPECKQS
Chain of yNap1 C200A/C249A/C272A labelled with Alexa dye at Cys-414 (yNap1m*) (yeast) (P25293 whole entry C200A/C249A/C272A): as the sequence (P25293 whole entry) above, with C200A, C249A, C272A counted along it

In the case of “H2A/H2B dimer (major type, wild type) (from UniProt P06897;P02281) (complex)”, the stoichiometry N (H2A/H2B dimer per yNap1 monomer) [1] is reported as 1.

Substance “H2A refolded in the absence of H2B (from UniProt P06897 1-130) (natural protein)” has a stoichiometry N [2] of 2.

“Tailless H2A/H2B dimer (from UniProt P06897 15-119) (complex)” showed a Kd [1] of 2.1 nM.

In the case of “yeast nucleosome assembly protein 1 (yNap1), wild type (from UniProt P25293 1-417) (natural protein)”, the Kd [3] is reported as 1.3 nM and the Kd app (yNap1 counted as dimer) [3] is reported as 0.7 nM.
